# Test results taken from patent US20230140435.
# Residue numbers refer to the chain shown, from its start. Names may count otherwise.
# B1: tubulin tyrosine ligase (TTL) (protein)
# chain: MYTFVVRDENSSVYAEVSRLLLATGHWKRLRRDNPRFNLMLGERNRLPFGRLGHEPGLVQLVNYYRGADKLCRKASLVKLIKTSPELAESCTWFPESYVIYPTNLKTPVAPAQNGIQPPISNSRTDEREFFLASYNRKKEDGEGNVWIAKSSAGAKGEGILISSEASELLDFIDNQGQVHVIQKYLEHPLLLEPGHRKFDIRSWVLVDHQYNIYLYREGVLRTASEPYHVDNFQDKTCHLTNHCIQKEYSKNYGKYEEGNEMFFKEFNQYLTSALNITLESSILLQIKHIIRNCLLSVEPAISTKHLPYQSFQLFGFDFMVDEELKVWLIEVNGAPACAQKLYAELCQGIVDIAISSVFPPPDVEQPQTQPAAFIKL
# B2: TTL catalytic-dead construct (TTL-E331Q) (protein)
# chain: B1 chain with E331Q
# Biological target: free tubulin (tubulin dimers) of isolated rat cardiomyocytes
row,Protein,"free:polymerized tubulin ratio (microtubule fractionation assay, western blot, isolated rat cardiomyocytes)"
1,B1,Both TTL and TTL-E331Q overexpression increased the amount of free tubulin relative to polymerized microtubules
2,B2,Both TTL and TTL-E331Q overexpression increased the amount of free tubulin relative to polymerized microtubules
